Columns and labels:
[1] = target: the molecule itself; experiment: crystal structure; HiNagB crystals, P21, 12 monomers in the asymmetric unit, 3.0 Å; 2% Tacsimate pH 5.0, 0.1 M sodium citrate pH 5.6, 16% PEG 3350, 0.1 M strontium chloride, 18°C
[2] = target: the molecule itself; experiment: crystal structure; PmNagB crystals, P21, 4 monomers in the asymmetric unit, 2.3 Å; 100 mM sodium cacodylate/HCl pH 6.5, 200 mM MgCl2, 20% PEG 1000, 18°C; analysis of crystal packing

Protein | stoichiometry N [1] | stoichiometry N [2]
Glucosamine-6-phosphate deaminase (NagB) from Haemophilus influenzae (enzyme, Glucosamine-6-phosphate deaminase (NagB), Haemophilus influenzae; Made from a Gateway recombinant plasmid; also called HiNagB; Hi-NagB; source: E. coli BL21(DE3)*, purified (Ni-NTA, SEC)) not shown | 6 | –
Glucosamine-6-phosphate deaminase (NagB) from Pasteurella multocida (enzyme, Glucosamine-6-phosphate deaminase (NagB), Pasteurella multocida; Made from a Gateway recombinant plasmid; also called PmNagB; Pm-NagB; source: E. coli BL21(DE3)*, purified (Ni-NTA, SEC)) not shown | – | 2

Source: PMC9812318, “A dimer between monomers and hexamers—Oligomeric variations in glucosamine-6-phosphate deaminase family” (PLOS ONE, 2023)
